Columns and labels:
Experiment in all cases: ITC
[1] = molecular target: purified OsHPP10-HMA (rice)
[2] = molecular target: purified OsHPP11-HMA (rice)
[3] = molecular target: purified OsHPP09-HMA (rice)
[4] = molecular target: purified OsHIPP21-HMA (rice)

“recombinant AVR-Pia (from UniProt B9WZW9 1-85) (natural protein)” showed a Kd [1] of 5260 nM, a Kd [2] of 772 nM and a Kd [3] of 115 nM. The Kd [4] was 1290 nM.
